The text below walks through data of PMC9458460, “Structural basis of 3′-end poly(A) RNA recognition by LARP1”.

Series [1] concerns the target T1, LARP1 LaM (UniProt Q6PKG0-3 323-410). The experiment in a line: ITC; 10 mM MES pH 6.3, 100 mM NaCl, 1 mM TCEP (HPLC and NMR buffer; ITC buffer not stated separately); ITC 293 K, NMR 25 C. (Isothermal titration calorimetry measures the heat released or taken up as one component is titrated into another.)
Series [2] addresses T1, LARP1 LaM. The series is described as above. This is another data set of the same source.
For series [3], the target named is LARP1 LaM Q333A/F348A (UniProt Q6PKG0-3 323-410, Q333A;F348A). The description is as above.
Series [4] concerns the target LARP1 LaM Y336A/F348A (UniProt Q6PKG0-3 323-410, Y336A;F348A). The series is described as above.
In series [5] the target is LARP1 LaM R345A (UniProt Q6PKG0-3 323-410, R345A). Described as above.
In series [6] the target is LARP1 LaM Q333A (UniProt Q6PKG0-3 323-410, Q333A). The description is as above.
The target of series [7] is LARP1 323-509 Y336A/F348A (UniProt Q6PKG0-3 323-509, Y336A;F348A). The series is described as above. The conditions noted are these: protein: recombinant.
Series [8] deals with LARP1 LaM-RRM region (UniProt Q6PKG0-3 323-509). Described as above. As to conditions: protein: recombinant.
For series [9], the target named is LARP1 323-509 Q333A/F348A (UniProt Q6PKG0-3 323-509, Q333A;F348A). The description is as above. As to conditions: protein: recombinant.
Series [10] has as its target T1, LARP1 LaM. The experiment in a line: crystal structure; 1.15 A; 10 mM MES pH 6.3, 100 mM NaCl, 1 mM TCEP (HPLC and NMR buffer; ITC buffer not stated separately); ITC 293 K, NMR 25 C.

B1: A5A(p) (ssRNA)
RNA: AAAAAA
modifications: 3' phosphate
With B1, in [1], the binding signal is about 200 fold weaker than A6.

B2: A4CA (ssRNA)
RNA: AAAACA
Molecule B2 had a binding signal in [1] of about 10 fold weaker than A6.

B3: A3CA2 (ssRNA)
RNA: AAACAA
As to B3, the binding result in series [2] is listed as “binds”.

B4: C6 (ssRNA)
RNA: CCCCCC
In series [1], B4 had a binding signal of over 200 fold weaker than A6.

B5: ACA4 (ssRNA)
RNA: ACAAAA
As for B5, in series [2], the binding result was “binds”.

B6: A3UA2 (ssRNA)
RNA: AAAUAA
Turning to B6, in series [2], the binding result is “binds”.

B7: A4 (ssRNA)
RNA: AAAA
For B7, the binding result is on record as “no binding” in series [3], “binds” in series [2] and “no binding” in [4]. Moreover, the binding signal in series [5] is ~2 fold weaker than wild type; in series [6] it was ~20 fold weaker than wild type.

B8: A25 (ssRNA)
RNA: AAAAAAAAAAAAAAAAAAAAAAAAA
Turning to B8, the binding result in series [7] and in series [9] was “no binding” each time. Also, the Kd – broadly, the concentration at which binding is half-saturated – in [8] is about 200 nM; in [2], under 1000 nM.

B9: A2CA3 (ssRNA)
RNA: AACAAA
Turning to B9, the binding result in series [2] is listed as “binds”.

B10: A5C (ssRNA)
RNA: AAAAAC
B10 gave a binding signal in series [1] of about 10 fold weaker than A6.

B11: A3 (ssRNA)
RNA: AAA
On to B11, for which, in [10], the binding result is reported as “binds”.

B12: G6 (ssRNA)
RNA: GGGGGG
As for B12, the binding signal in series [1] is about 10 fold weaker than A6.

B13: A6 (ssRNA)
RNA: AAAAAA
On to B13, for which, in [2], the binding result is recorded as “binds”.

B14: U6 (ssRNA)
RNA: UUUUUU
In [1], B14 came in with a binding signal of about 10 fold weaker than A6.

B15: A11 (ssRNA)
RNA: AAAAAAAAAAA
In the case of B15, the binding result in series [2] is listed as “binds”.
